Test [1] concerns the target human HER2 (hHER2) on cells (human). Briefly: cell-based or functional assay.
For test [2], the target named is HER2 and TROP2 expressed together on NCI-H292 cells and NCI-N87 cells (human). The test is described as follows: cell-based or functional assay.
For test [3], the target named is human HER2 (hHER2) on cells (human). Briefly: flow cytometry, NCI-H292 cells (express HER2 and TROP2). In general terms: Flow cytometry measures light scatter and fluorescence of single cells or particles in a stream.
The target is the same in test [4]. Briefly: flow cytometry, NCI-N87 cells (express HER2 and TROP2).

In test [1], Pertuzumab analog (antibody) registered an endocytosis, direct detection: MFI of 15700; an endocytosis, direct detection: Percentage of Positive Population of 74.7%; an endocytosis, indirect detection: MFI of 21000; an endocytosis, indirect detection: Percentage of Positive Population of 79.5%. In test [1], this substance registered an endocytosis: MFI of 100000 and an endocytosis: Percentage of Positive (%) of 97.1%.

As to Isotype control (antibody), in test [2], the endocytosis, direct detection: MFI is 4900; the endocytosis, direct detection: Percentage of Positive Population was found to be 1.86%; the endocytosis, indirect detection: MFI stood at 4920; the endocytosis, indirect detection: Percentage of Positive Population was found to be 1.88%. Moreover, in test [1], the endocytosis: MFI was determined as 9840 and the endocytosis: Percentage of Positive (%) came to 1.1%.

Take Trastuzumab analog (antibody): in test [3], the flow cytometry test result (%) amounted to 97.8%. In test [1], this substance yielded an endocytosis, direct detection: MFI of 18900; an endocytosis, direct detection: Percentage of Positive Population of 82.5%; an endocytosis, indirect detection: MFI of 23400; an endocytosis, indirect detection: Percentage of Positive Population of 87.3%. In addition, in test [1], the endocytosis: MFI amounted to 50400 and the endocytosis: Percentage of Positive (%) came to 88%. In test [4], this substance yielded a flow cytometry test result (%) of 98.5%.

The record behind these values is US20250059297A1.
